Test results: patent US20130109581A1, “POSITIVELY CHARGED SPECIES AS BINDING REAGENTS IN THE SEPARATION OF PROTEIN AGGREGATES FROM MONOMERS” (priority 2009, published 2013)
Read-outs that look alike come from different tables or passages of the source.

Tests used:
[1] = target: Abeta 1-42 globulomer, P05067; assay: MPA bead capture, CSF + 1 ng/mL globulomer, Abeta immunoassay
[2] = target: Abeta 1-42 globulomer, P05067; assay: 42 (globulomer) RLU over 40 (Abeta 1-40 monomer) RLU
[3] = target: Abeta 1-40 monomer, P05067; assay: MPA bead capture, Abeta 1-40 read-out of the CSF sample (noise)
[4] = target: Abeta (1-42) aggregates from Alzheimer's Disease Brain Homogenate (human), P05067; assay: MPA, serial dilutions in CSF, LoD = 2x over background
[5] = target: ADDL (Abeta42 aggregate), P05067; assay: as above
Abeta42 fibrils, P05067 = assay: as above
[6] = target: ASPD (Abeta42 aggregate), P05067; assay: as above
Abeta 1-40 monomer = Abeta 1-40 monomer (UniProt P05067); assay: MPA bead capture, Abeta 1-40 read-out of the CSF sample (noise)
[7] = remark: other sources report otherwise

Binder FKFSLFSG (modifications not checked) has an average RLU (42) [1] of 3080 RLU, a 42:40 ratio [2] of 1.5 and an average RLU (40) [3] of 2010 RLU.

AAKKKA (modifications not checked) gave an average RLU (42) [1] of 247 RLU and a 42:40 ratio [2] of 1.6.

Binder FKFNLFSG (modifications not checked) has an average RLU (42) [1] of 3230 RLU, a 42:40 ratio [2] of 2.4 and an average RLU (40) [3] of 1330 RLU.

B1: Ac-FKFKKK-Link (Ac-FKFKKK-Ahx-Ahx-Cys-NH2) (peptide)
peptide: FKFKKK
HELM: PEPTIDE1{[ac].F.K.F.K.K.K.[O=C(CCCCCN[*:1])[*:2]].[O=C(CCCCCN[*:1])[*:2]].C.[am]}$$$$V2.0
SMILES: CC(=O)N[C@@H](Cc1ccccc1)C(=O)N[C@@H](CCCCN)C(=O)N[C@@H](Cc1ccccc1)C(=O)N[C@@H](CCCCN)C(=O)N[C@@H](CCCCN)C(=O)N[C@@H](CCCCN)C(=O)NCCCCCC(=O)NCCCCCC(=O)N[C@@H](CS)C(N)=O
For B1, the average RLU (42) [1] was 2000 RLU, the LoD [4] was under 10 pg/mL and the LoD [5] was 300 pg/mL. It also gave a LoD (Abeta42 fibrils, P05067) of 100 pg/mL, a LoD [6] of 300 pg/mL and a 42:40 ratio [2] of 5.7.

KKKKKK (modifications not checked) gave an average RLU (42) [1, 7] of 658 RLU and a 42:40 ratio [2, 7] of 3.3.

For DFKLNFKF (modifications not checked), the average RLU (42) [1] was 516 RLU and the 42:40 ratio [2] was 2.

ANFFAHSS (modifications not checked) was tested, and the average RLU (42) [1] was 994 RLU and the 42:40 ratio [2] was 1.8.

For IRYVTHQYILWP (modifications not checked) […], the average RLU (42) [1] was 3240 RLU, the 42:40 ratio [2] was 3.2 and the average RLU (40) [3] was 1010 RLU. For the same binder, the average RLU (40) (Abeta 1-40 monomer) was 348 RLU.

FKFKKK (modifications not checked) [link-FKFKKK] showed an average RLU (42) [1] of 808 RLU and a 42:40 ratio [2] of 4.1.

Binder AAAKAA (modifications not checked) has an average RLU (42) [1] of 114 RLU and a 42:40 ratio [2] of 0.8.

KKKFKF (modifications not checked) [link-KKKFKF] showed an average RLU (42) [1] of 1650 RLU and a 42:40 ratio [2] of 5.9.

In the case of AKKKKK (modifications not checked), the average RLU (42) [1] is reported as 442 RLU and the 42:40 ratio [2] is reported as 2.5.

With AAKKAA (modifications not checked) the average RLU (42) [1] was 160 RLU and the 42:40 ratio [2] was 1.1.

Work on KKKFKF (modifications not checked) [KKKFKF-link] yielded an average RLU (42) [1] of 748 RLU and a 42:40 ratio [2] of 3.9.

In the case of AKKKKA (modifications not checked), the average RLU (42) [1] is reported as 322 RLU and the 42:40 ratio [2] is reported as 2.1.
